Columns and labels:
Assay in all cases: pull-down; GST-VRK3 (wild type, S108A, S108E) incubated overnight with recombinant VHR or recombinant phospho-ERK2 in Triton lysis buffer with 1 mM DTT and 10% glycerol, then glutathione-sepharose 4B beads at 4 °C for 1 h
Details in all cases: both partners purified
[1] = molecular target: T1, GST-tagged recombinant full-length VRK3 (vaccinia-related kinase 3), wild type (human, UniProt Q8IV63 1-474)
T1 construct: vaccinia-related kinase 3 (VRK3), human; coding region amplified by RT-PCR from mRNA of human cell lines and cloned into pGEX4T-3; full length (fragment F3 ends at amino acid 474); pGEX4T-3 vector; also called GST-VRK3; VRK3^WT; source: E. coli BL21 (DE3) pLysS, purified (glutathione-sepharose 4B)
T1 sequence (looked up): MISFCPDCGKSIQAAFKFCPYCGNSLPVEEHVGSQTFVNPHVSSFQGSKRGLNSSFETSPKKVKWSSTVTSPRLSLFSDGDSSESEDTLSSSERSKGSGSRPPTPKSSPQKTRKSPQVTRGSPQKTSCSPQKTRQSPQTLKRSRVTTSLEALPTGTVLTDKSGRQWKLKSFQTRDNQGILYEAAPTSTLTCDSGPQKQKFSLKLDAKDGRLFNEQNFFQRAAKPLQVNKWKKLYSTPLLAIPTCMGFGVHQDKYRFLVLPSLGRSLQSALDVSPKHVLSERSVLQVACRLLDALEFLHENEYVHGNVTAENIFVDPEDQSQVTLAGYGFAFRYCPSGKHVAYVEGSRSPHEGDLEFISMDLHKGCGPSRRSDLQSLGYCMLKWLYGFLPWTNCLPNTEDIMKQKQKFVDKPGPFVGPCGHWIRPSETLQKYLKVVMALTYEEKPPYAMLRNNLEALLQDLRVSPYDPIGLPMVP

[2] = molecular target: T2, GST-VRK3^S108A (human, UniProt Q8IV63 1-474, S108A)
T2 construct: vaccinia-related kinase 3 (VRK3), human; S108A made by site-directed mutagenesis in pGEX4T-3; pGEX4T-3 vector; also called S108A mutant VRK3; source: E. coli BL21 (DE3) pLysS, purified (glutathione-sepharose 4B)
T2 sequence (looked up): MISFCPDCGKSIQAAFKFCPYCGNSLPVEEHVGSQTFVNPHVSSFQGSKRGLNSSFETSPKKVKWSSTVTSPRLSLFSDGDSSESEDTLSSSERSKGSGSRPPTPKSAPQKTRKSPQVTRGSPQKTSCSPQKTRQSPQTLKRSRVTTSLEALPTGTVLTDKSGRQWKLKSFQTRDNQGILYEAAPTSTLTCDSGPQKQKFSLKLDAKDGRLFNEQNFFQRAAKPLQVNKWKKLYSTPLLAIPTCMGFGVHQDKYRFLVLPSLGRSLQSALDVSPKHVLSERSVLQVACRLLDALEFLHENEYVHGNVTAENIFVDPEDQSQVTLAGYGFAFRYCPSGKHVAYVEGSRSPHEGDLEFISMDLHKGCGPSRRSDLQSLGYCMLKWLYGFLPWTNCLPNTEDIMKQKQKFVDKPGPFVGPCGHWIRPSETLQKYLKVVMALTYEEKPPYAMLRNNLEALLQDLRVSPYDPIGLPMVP

[3] = molecular target: T3, GST-VRK3^S108E (human, UniProt Q8IV63 1-474, S108E)
T3 construct: vaccinia-related kinase 3 (VRK3), human; S108E (phosphomimetic) made by site-directed mutagenesis in pGEX4T-3; pGEX4T-3 vector; also called S108E mutant VRK3; phosphomimetic mutant of VRK3; source: E. coli BL21 (DE3) pLysS, purified (glutathione-sepharose 4B)
T3 sequence (looked up): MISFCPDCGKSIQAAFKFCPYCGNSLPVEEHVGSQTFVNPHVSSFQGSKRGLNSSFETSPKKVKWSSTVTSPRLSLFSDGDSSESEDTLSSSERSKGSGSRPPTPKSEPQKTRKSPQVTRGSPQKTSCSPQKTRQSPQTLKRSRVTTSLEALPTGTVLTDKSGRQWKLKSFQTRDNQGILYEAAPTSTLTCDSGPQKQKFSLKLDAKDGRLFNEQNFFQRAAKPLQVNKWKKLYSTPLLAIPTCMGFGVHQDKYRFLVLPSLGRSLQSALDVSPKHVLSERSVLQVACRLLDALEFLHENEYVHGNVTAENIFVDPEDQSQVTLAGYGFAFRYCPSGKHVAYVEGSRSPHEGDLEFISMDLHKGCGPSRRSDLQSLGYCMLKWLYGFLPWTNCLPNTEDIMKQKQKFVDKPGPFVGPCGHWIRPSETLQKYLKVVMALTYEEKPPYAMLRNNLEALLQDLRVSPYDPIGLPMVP

binding result [1]: binds
binding result [2]: binds
binding result [3]: binds
B1: recombinant VHR (vaccinia H1-related phosphatase) (enzyme, human, UniProt P51452 1-185, looked up)
chain: MSGSFELSVQDLNDLLSDGSGCYSLPSQPCNEVTPRIYVGNASVAQDIPKLQKLGITHVLNAAEGRSFMHVNTNANFYKDSGITYLGIKANDTQEFNLSAYFERAADFIDQALAQKNGRVLVHCREGYSRSPTLVIAYLMMRQKMDVKSALSIVRQNREIGPNDGFLAQLCQLNDRLAKEGKLKP
notes: vaccinia H1-related (VHR) phosphatase; coding region amplified by RT-PCR from mRNA of human cell lines (SH-SY5Y, HEK293A, HeLa); source: E. coli BL21 (DE3) pLysS, purified

— PMC4922050, “Stress-induced nuclear translocation of CDK5 suppresses neuronal death by downregulating ERK activation via VRK3 phosphorylation” (Scientific Reports, 2016)
